From the supplement of paper PMC7125110
± gives the standard error. For some of these results: This sample holds only a part of the variants without activity.

B1: glmS ribozyme (parent)
chain: AUAAAAGCGCCAGAACUACAGAAAUGUAGUUGACGAGGAGGAGGUUUAUCGAAUUUUCGGCGGAUGCCUCCAAA

Experiments:
Conditions in all cases: with glucosamine-6-phosphate
glucosamine-6-phosphate [1] = variants of: B1; experiment: kcat; higher = faster cleavage; RNA array
Method in brief: (§1)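 Tracking of barcoded ribozyme variants used a hybridised Cy3 probe at 37 °C, after in situ transcription by E. coli RNA polymerase on sequenced MiSeq chips. The flowed solution held 40 μM to 10 mM glucosamine-6-phosphate in HEPES/KCl/Mg(OAc)2 buffer, and imaging ran over ~14 h. kobs was taken from exponential decay fits of normalised per-tile medians, and kcat and KM from weighted Michaelis–Menten fits.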

glucosamine-6-phosphate [2] = variants of: B1; experiment: KM; higher = weaker cofactor use; RNA array
Method in brief: as §1

glucosamine-6-phosphate [3] = variants of: B1; experiment: self-cleavage kobs at 640 uM GlcN6P; higher = faster cleavage; RNA array
Method in brief: as §1

glucosamine-6-phosphate [4] = variants of: B1; experiment: self-cleavage kobs at 2500 uM GlcN6P; higher = faster cleavage; RNA array
Method in brief: as §1

glucosamine-6-phosphate [5] = variants of: B1; experiment: self-cleavage kobs at 10000 uM GlcN6P; higher = faster cleavage; RNA array
Method in brief: as §1

glucosamine-6-phosphate [6] = variants of: B1; experiment: self-cleavage kobs at 40 uM GlcN6P; higher = faster cleavage; RNA array
Method in brief: as §1

glucosamine-6-phosphate [7] = variants of: B1; experiment: self-cleavage kobs at 160 uM GlcN6P; higher = faster cleavage; RNA array
Method in brief: as §1

A33U U55G
kcat (glucosamine-6-phosphate [1]): 0.000103 ± 1e-05 s⁻¹
KM (glucosamine-6-phosphate [2]): 1990 ± 570 µM
self-cleavage kobs at 640 uM GlcN6P (glucosamine-6-phosphate [3]): 3.4e-05 ± 1.3e-05 s⁻¹
self-cleavage kobs at 2500 uM GlcN6P (glucosamine-6-phosphate [4]): 5.38e-05 ± 7.7e-06 s⁻¹
self-cleavage kobs at 10000 uM GlcN6P (glucosamine-6-phosphate [5]): 8.77e-05 ± 1e-05 s⁻¹

A33U U55C
kcat (glucosamine-6-phosphate [1]): 0.000106 ± 1.2e-05 s⁻¹
KM (glucosamine-6-phosphate [2]): 6170 ± 1300 µM
self-cleavage kobs at 40 uM GlcN6P (glucosamine-6-phosphate [6]): < 1e-05 s⁻¹
self-cleavage kobs at 2500 uM GlcN6P (glucosamine-6-phosphate [4]): 3.12e-05 ± 5.7e-06 s⁻¹
self-cleavage kobs at 10000 uM GlcN6P (glucosamine-6-phosphate [5]): 6.51e-05 ± 7.8e-06 s⁻¹

G37C U47C
kcat (glucosamine-6-phosphate [1]): < 1e-05 s⁻¹
self-cleavage kobs at 40 uM GlcN6P (glucosamine-6-phosphate [6]): < 1e-05 s⁻¹
self-cleavage kobs at 160 uM GlcN6P (glucosamine-6-phosphate [7]): < 1e-05 s⁻¹

G38U U57A
kcat (glucosamine-6-phosphate [1]): 1.47e-05 ± 4.2e-06 s⁻¹
self-cleavage kobs at 640 uM GlcN6P (glucosamine-6-phosphate [3]): < 1e-05 s⁻¹

C34U G38A C71U
kcat (glucosamine-6-phosphate [1]): < 1e-05 s⁻¹
self-cleavage kobs at 40 uM GlcN6P (glucosamine-6-phosphate [6]): < 1e-05 s⁻¹
self-cleavage kobs at 160 uM GlcN6P (glucosamine-6-phosphate [7]): < 1e-05 s⁻¹
self-cleavage kobs at 2500 uM GlcN6P (glucosamine-6-phosphate [4]): < 1e-05 s⁻¹

G37A C50A
kcat (glucosamine-6-phosphate [1]): 1.38e-05 ± 4.6e-06 s⁻¹

G38A C50G
kcat (glucosamine-6-phosphate [1]): 3.77e-05 ± 1.1e-05 s⁻¹
self-cleavage kobs at 160 uM GlcN6P (glucosamine-6-phosphate [7]): 6.25e-05 ± 1.5e-05 s⁻¹
self-cleavage kobs at 640 uM GlcN6P (glucosamine-6-phosphate [3]): 3.79e-05 ± 1.3e-05 s⁻¹
self-cleavage kobs at 2500 uM GlcN6P (glucosamine-6-phosphate [4]): 3.46e-05 ± 1.4e-05 s⁻¹

G37U C67U
kcat (glucosamine-6-phosphate [1]): 1.39e-05 ± 4.5e-06 s⁻¹
self-cleavage kobs at 40 uM GlcN6P (glucosamine-6-phosphate [6]): < 1e-05 s⁻¹

G37U C67G
kcat (glucosamine-6-phosphate [1]): < 1e-05 s⁻¹
self-cleavage kobs at 10000 uM GlcN6P (glucosamine-6-phosphate [5]): < 1e-05 s⁻¹

G35C C70A
kcat (glucosamine-6-phosphate [1]): < 1e-05 s⁻¹
self-cleavage kobs at 40 uM GlcN6P (glucosamine-6-phosphate [6]): < 1e-05 s⁻¹
self-cleavage kobs at 640 uM GlcN6P (glucosamine-6-phosphate [3]): < 1e-05 s⁻¹

G35C C70G
kcat (glucosamine-6-phosphate [1]): < 1e-05 s⁻¹
self-cleavage kobs at 2500 uM GlcN6P (glucosamine-6-phosphate [4]): < 1e-05 s⁻¹

G37A U65C
kcat (glucosamine-6-phosphate [1]): 0.000108 ± 1.4e-05 s⁻¹
KM (glucosamine-6-phosphate [2]): 2300 ± 1100 µM
self-cleavage kobs at 2500 uM GlcN6P (glucosamine-6-phosphate [4]): 6.65e-05 ± 1.7e-05 s⁻¹
self-cleavage kobs at 10000 uM GlcN6P (glucosamine-6-phosphate [5]): 8.61e-05 ± 1.1e-05 s⁻¹

A33U G60C
kcat (glucosamine-6-phosphate [1]): < 1e-05 s⁻¹
self-cleavage kobs at 40 uM GlcN6P (glucosamine-6-phosphate [6]): < 1e-05 s⁻¹
self-cleavage kobs at 640 uM GlcN6P (glucosamine-6-phosphate [3]): < 1e-05 s⁻¹
self-cleavage kobs at 10000 uM GlcN6P (glucosamine-6-phosphate [5]): < 1e-05 s⁻¹

G38C C50U
kcat (glucosamine-6-phosphate [1]): < 1e-05 s⁻¹
self-cleavage kobs at 160 uM GlcN6P (glucosamine-6-phosphate [7]): < 1e-05 s⁻¹
self-cleavage kobs at 640 uM GlcN6P (glucosamine-6-phosphate [3]): < 1e-05 s⁻¹
self-cleavage kobs at 10000 uM GlcN6P (glucosamine-6-phosphate [5]): < 1e-05 s⁻¹

G38C C50G
kcat (glucosamine-6-phosphate [1]): 1.28e-05 ± 1.9e-06 s⁻¹

A36C C70U
kcat (glucosamine-6-phosphate [1]): < 1e-05 s⁻¹
self-cleavage kobs at 40 uM GlcN6P (glucosamine-6-phosphate [6]): < 1e-05 s⁻¹

G37A U55C
kcat (glucosamine-6-phosphate [1]): 0.000802 ± 5.9e-05 s⁻¹
KM (glucosamine-6-phosphate [2]): 2180 ± 260 µM
self-cleavage kobs at 160 uM GlcN6P (glucosamine-6-phosphate [7]): 5.1e-05 ± 1.1e-05 s⁻¹
self-cleavage kobs at 640 uM GlcN6P (glucosamine-6-phosphate [3]): 0.000189 ± 2e-05 s⁻¹
self-cleavage kobs at 2500 uM GlcN6P (glucosamine-6-phosphate [4]): 0.000404 ± 5.6e-05 s⁻¹
self-cleavage kobs at 10000 uM GlcN6P (glucosamine-6-phosphate [5]): 0.000676 ± 8.7e-05 s⁻¹

G37A U55A
kcat (glucosamine-6-phosphate [1]): 0.00489 ± 0.0022 s⁻¹
self-cleavage kobs at 40 uM GlcN6P (glucosamine-6-phosphate [6]): 0.000128 ± 5.4e-05 s⁻¹
self-cleavage kobs at 160 uM GlcN6P (glucosamine-6-phosphate [7]): 0.000133 ± 2.8e-05 s⁻¹
self-cleavage kobs at 640 uM GlcN6P (glucosamine-6-phosphate [3]): 0.000667 ± 0.00015 s⁻¹
self-cleavage kobs at 2500 uM GlcN6P (glucosamine-6-phosphate [4]): 0.00226 ± 0.00037 s⁻¹
self-cleavage kobs at 10000 uM GlcN6P (glucosamine-6-phosphate [5]): 0.00286 ± 0.00068 s⁻¹

G37A U55G
kcat (glucosamine-6-phosphate [1]): 0.0025 ± 0.0004 s⁻¹
KM (glucosamine-6-phosphate [2]): 2980 ± 830 µM
self-cleavage kobs at 40 uM GlcN6P (glucosamine-6-phosphate [6]): 2.68e-05 ± 1.3e-05 s⁻¹
self-cleavage kobs at 160 uM GlcN6P (glucosamine-6-phosphate [7]): 0.000204 ± 6.7e-05 s⁻¹
self-cleavage kobs at 640 uM GlcN6P (glucosamine-6-phosphate [3]): 0.000401 ± 9.1e-05 s⁻¹
self-cleavage kobs at 2500 uM GlcN6P (glucosamine-6-phosphate [4]): 0.00122 ± 0.0002 s⁻¹
self-cleavage kobs at 10000 uM GlcN6P (glucosamine-6-phosphate [5]): 0.00188 ± 0.00028 s⁻¹

A36G
kcat (glucosamine-6-phosphate [1]): 2.12e-05 ± 2.6e-06 s⁻¹
self-cleavage kobs at 2500 uM GlcN6P (glucosamine-6-phosphate [4]): 1.72e-05 ± 3e-06 s⁻¹
self-cleavage kobs at 10000 uM GlcN6P (glucosamine-6-phosphate [5]): 1.89e-05 ± 1.4e-06 s⁻¹
